This passage reports Kd results from paper doi:10.1101/2025.07.03.663104.

The target in this assay is OsPR5-His (rice (Oryza sativa)) (UniProt P31110). As to the kind of experiment: BLI.
Chain of OsPR5-His (rice (Oryza sativa)) (P31110 27-177): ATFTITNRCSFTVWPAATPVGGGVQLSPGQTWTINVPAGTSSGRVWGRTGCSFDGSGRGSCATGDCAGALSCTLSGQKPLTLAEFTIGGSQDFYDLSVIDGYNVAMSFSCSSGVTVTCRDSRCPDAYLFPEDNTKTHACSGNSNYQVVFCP

Take GBP-His (natural protein): the Kd – broadly, the free concentration of one partner at which half of the binding sites on the other are occupied at equilibrium, for simple one-to-one binding – was determined as 0.745 nM.

For “ThBP15k (recombinant, no tag named) (natural protein)”, the Kd came to 25.9 nM.
